Data from doi:10.1101/2020.11.13.381095 (bioRxiv, 2020).

T1: adrenodoxin (human, UniProt P10109 61-184)
T1 sequence (looked up): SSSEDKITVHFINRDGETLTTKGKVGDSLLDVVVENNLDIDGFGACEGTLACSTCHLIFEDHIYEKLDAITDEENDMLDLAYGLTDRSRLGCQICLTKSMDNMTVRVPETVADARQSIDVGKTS


Assays:
Assay in all cases: SPR
adrenodoxin [1] = biological target: T1, adrenodoxin
adrenodoxin [2] = biological target: T1, adrenodoxin; remark: listed apart in the source
adrenodoxin [3] = biological target: T1, adrenodoxin; remark: listed apart in the source
adrenodoxin [4] = biological target: T1, adrenodoxin; remark: listed apart in the source
adrenodoxin [5] = biological target: T1, adrenodoxin; remark: listed apart in the source
adrenodoxin [6] = biological target: T1, adrenodoxin; remark: listed apart in the source
adrenodoxin [7] = biological target: T1, adrenodoxin; remark: listed apart in the source
adrenodoxin [8] = biological target: T1, adrenodoxin; remark: listed apart in the source
adrenodoxin [9] = biological target: T1, adrenodoxin; remark: listed apart in the source

Row | fold change of koff with cholesterol against ligand-free (adrenodoxin [1]) [fold] | fold increase of kon with cholesterol against ligand-free (adrenodoxin [1]) [fold] | fold increase of Kd with 22R-hydroxycholesterol against cholesterol (adrenodoxin [2]) [fold] | fold decrease of kon with 20R,22R-dihydroxycholesterol against ligand-free (adrenodoxin [3]) [fold] | fold increase of Kd with 20R,22R-dihydroxycholesterol against cholesterol (adrenodoxin [3]) [fold] | fold increase of Kd with 20R,22R-dihydroxycholesterol against ligand-free (adrenodoxin [3]) [fold] | fold increase of koff with 20R,22R-dihydroxycholesterol against ligand-free (adrenodoxin [3]) [fold] | fold increase of Kd with pregnenolone against cholesterol (adrenodoxin [4]) [fold] | fold decrease of kon with 25-hydroxycholesterol against ligand-free (adrenodoxin [5]) [fold] | fold increase of Kd with 25-hydroxycholesterol against ligand-free (adrenodoxin [5]) [fold] | fold decrease of kon with 20S-hydroxycholesterol against ligand-free (adrenodoxin [6]) [fold] | fold increase of Kd with 20S-hydroxycholesterol against ligand-free (adrenodoxin [6]) [fold] | fold increase of koff with 11-deoxycortisol against ligand-free (adrenodoxin [7]) [fold] | fold increase of kon with 11-deoxycortisol against ligand-free (adrenodoxin [7]) [fold] | fold increase of Kd with 11-deoxycorticosterone against ligand-free (adrenodoxin [8]) [fold] | fold increase of koff with 11-deoxycorticosterone against ligand-free (adrenodoxin [8]) [fold] | fold increase of kon with 11-deoxycorticosterone against ligand-free (adrenodoxin [8]) [fold] | fold change of Kd with corticosterone against ligand-free (adrenodoxin [9]) [fold] | fold increase of Kd with 11-deoxycortisol against ligand-free (adrenodoxin [7]) [fold] | Binder
1 | ~1.5 | 4 | 4 | 2 | ~10 | ~3.4 | ~1.8 | ~21 | 2 | 4.6 | 2 | 3.1 |  |  |  |  |  |  |  | cytochrome P450 CYP11A1 (cholesterol side chain cleavage enzyme) (enzyme, human) STRSPRPFNEIPSPGDNGWLNLYHFWRETGTHKVHLHHVQNFQKYGPIYREKLGNVESVYVIDPEDVALLFKSEGPNPERFLIPPWVAYHQYYQRPIGVLLKKSAAWKKDRVALNQEVMAPEATKNFLPLLDAVSRDFVSVLHRRIKKAGSGNYSGDISDDLFRFAFESITNVIFGERQGMLEEVVNPEAQRFIDAIYQMFHTSVPMLNLPPDLFRLFRTKTWKDHVAAWDVIFSKADIYTQNFYWELRQKGSVHHDYRGILYRLLGDSKMSFEDIKANVTEMLAGGVDTTSMTLQWHLYEMARNLKVQDMLRAEVLAARHQAQGDMATMLQLVPLLKASIKETLRLHPISVTLQRYLVNDLVLRDYMIPAKTLVQVAIYALGREPTFFFDPENFDPTRWLSKDKNITYFRNLGFGWGVRQCLGRRIAELEMTIFLINMLENFRVEIQHLSDVGTTFNLILMPEKPISFTFWPFNQEATQQ
2 |  |  |  |  |  |  |  |  |  |  |  |  | ~3.2 | 4 | 2.4 | 4.4 | ~2 |  |  | cytochrome P450 CYP11B1 (11ß-hydroxylase) (enzyme, human) VPRTVLPFEAMPRRPGNRWLRLLQIWREQGYEDLHLEVHQTFQELGPIFRYDLGGAGMVCVMLPEDVEKLQQVDSLHPHRMSLEPWVAYRQHRGHKCGVFLLNGPEWRFNRLRLNPEVLSPNAVQRFLPMVDAVARDFSQALKKKVLQNARGSLTLDVQPSIFHYTIEASNLALFGERLGLVGHSPSSASLNFLHALEVMFKSTVQLMFMPRSLSRWTSPKVWKEHFEAWDCIFQYGDNCIQKIYQELAFSRPQQYTSIVAELLLNAELSPDAIKANSMELTAGSVDTTVFPLLMTLFELARNPNVQQALRQESLAAAASISEHPQKATTELPLLRAALKETLRLYPVGLFLERVASSDLVLQNYHIPAGTLVRVFLYSLGRNPALFPRPERYNPQRWLDIRGSGRNFYHVPFGFGMRQCLGRRLAEAEMLLLLHHVLKHLQVETLTQEDIKMVYSFILRPSMFPLLTFRAIN
3 |  |  |  |  |  |  |  |  |  |  |  |  |  |  | 11 | 7 |  | 1.7 | 4.7 | cytochrome P450 CYP11B2 (aldosterone synthase) (enzyme, human, UniProt P19099 25-503, looked up) GTRAARAPRTVLPFEAMPQHPGNRWLRLLQIWREQGYEHLHLEMHQTFQELGPIFRYNLGGPRMVCVMLPEDVEKLQQVDSLHPCRMILEPWVAYRQHRGHKCGVFLLNGPEWRFNRLRLNPDVLSPKAVQRFLPMVDAVARDFSQALKKKVLQNARGSLTLDVQPSIFHYTIEASNLALFGERLGLVGHSPSSASLNFLHALEVMFKSTVQLMFMPRSLSRWISPKVWKEHFEAWDCIFQYGDNCIQKIYQELAFNRPQHYTGIVAELLLKAELSLEAIKANSMELTAGSVDTTAFPLLMTLFELARNPDVQQILRQESLAAAASISEHPQKATTELPLLRAALKETLRLYPVGLFLERVVSSDLVLQNYHIPAGTLVQVFLYSLGRNAALFPRPERYNPQRWLDIRGSGRNFHHVPFGFGMRQCLGRRLAEAEMLLLLHHVLKHFLVETLTQEDIKMVYSFILRPGTSPLLTFRAIN
